Assay results reported in patent US20230263832A1, “TARGETED DRUG DELIVERY TO SITES OF INTRAVASCULAR OCCLUSION” (Children's Medical Center Corporation, priority 2020, published 2023).

Tested on: RBC aggregates in SCD mouse liver
Experiment: TNFα-induced vaso-occlusion in SCD mouse liver (LaSC, 3 parameters)
Assay type: in vivo
Details: SS mice, TNFα 1 μg/mouse i.p. 1 h
Procedure: FIG. 12: Parameters of RBC aggregates were determined to quantitate vaso-occlusion in SCD mouse liver. SCD mice were injected with TNFα (1 μg/mouse; 1 h) to induce inflammatory vaso-occlusion, followed by CO2 euthanasia and PBS perfusion to flush unbound RBCs in the vasculature. The livers were harvested and fixed by PLP fixative, followed by cryosectioning and immunofluorescent staining with antibodies against Ter119 (for RBC marker), Endoglin (for sinusoidal vasculature), S100A8 (for neutrophils), and DAPI (for nuclei). Stained slides with fluorescent dye-labeled secondary antibodies were scanned on laser scan cytometry (LaSC), followed by quantitative imaging analysis (iCys software) to quantitate the # of RBC aggregates that are larger than 100 μm^2, total area of RBC aggregates, the # neutrophil-containing RBC aggregates by iCys software. Arrows indicate the neutrophil-containing RBC aggregate in liver sinusoid.
SCD SS and control AA mice were injected with or without TNFα (1 μg/mouse; 1 h) to induce inflammatory vaso-occlusion, followed by CO2 euthanasia and PBS perfusion to flush unbound RBCs in the vasculature. Immunofluorescent staining of liver cryosections was performed as described in FIG. 12 to produce LaSC images, which were subjected to quantitative imaging analysis of RBC aggregates for 3 parameters in SCD mouse livers (see FIG. 14).
From FIG. 13 LaSC scanning, cytometric events are defined by automatic image segmentation on specific channels by iCys software to quantitate # of RBC aggregate, total area of RBC aggregates, # of neutrophil-containing RBC aggregates by iCys software (Park et al. 2020). […]
(FIG. 15A) Representative images show the increased RBC aggregates upon TNFα injection in SCD mouse liver. (FIG. 15B) This was followed by quantitative imaging analysis (iCys software) to quantitate # of RBC aggregate, total area of RBC aggregates, # of neutrophil-containing RBC aggregates by iCys software. […]

TNFα
increase of # of RBC aggregates: 51% | increase of # of neutrophil-containing RBC aggregates: 182% | increase of total area of RBC aggregates: 59%
